We go through 15 molecules from article PMC3499403 (PLoS Neglected Tropical Diseases, 2012).

Changes are numbered by the printed parent chain.

T1: Variant-specific Surface Glycoprotein (VSG) on live bloodstream form T. b. brucei AnTat1.1 (Trypanosoma brucei brucei AnTat1.1 (endogenous in the parasites)) (UniProt P06015)
T1 sequence: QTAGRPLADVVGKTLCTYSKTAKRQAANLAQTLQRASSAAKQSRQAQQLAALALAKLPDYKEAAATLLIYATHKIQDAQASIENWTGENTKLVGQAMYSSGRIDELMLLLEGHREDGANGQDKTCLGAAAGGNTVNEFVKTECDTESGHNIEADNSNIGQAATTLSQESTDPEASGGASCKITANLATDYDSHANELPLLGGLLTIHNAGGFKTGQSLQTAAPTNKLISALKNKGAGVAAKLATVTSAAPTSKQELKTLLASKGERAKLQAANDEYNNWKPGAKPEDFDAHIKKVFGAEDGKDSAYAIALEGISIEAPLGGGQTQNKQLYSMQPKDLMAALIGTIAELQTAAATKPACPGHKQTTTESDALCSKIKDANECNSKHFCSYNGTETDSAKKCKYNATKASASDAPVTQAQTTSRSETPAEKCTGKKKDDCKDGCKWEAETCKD

B1: Nb_An33hum1 (VHH)
VHH: DVQLVESGGGSVQAGGSLRLSCAVSGSTYSPCTTGWVRQAPGKEREWVSSISSPGTIYYQDSVKGRFTISRDNAKNTVYLQMNSLQREDTGMYYCQIQCGVRSIREYWGQGTQVTVSS
B2: Nb_An33hum3 (VHH)
VHH: B1 VHH with V37Y, E44G, R45L
B3: Nanobody 33 (Nb_An33), wildtype (VHH)
VHH: B1 VHH with V37Y
B4: Nb_An33hum2 (VHH)
VHH: B1 VHH with E44G, R45L
B5: Nb_An-R3.68 (VHH)
VHH: QVQLQESGGGLVQPGGSLRLSCAASGGTLSYYAVGWFRQAPGKEREAVSSIRSGGGITVYADSVKGRFTISRDNKKNTVYLQMNGLKPEDTAVYYCAAGLWRWPDHNMLVSGNYDYWGQGTQVTVSS
notes: From the alpaca sVSG-immune library, cloned in pMES; source: E. coli WK6, purified (Ni-NTA, Superdex 75 gel filtration)
B6: Nb_An33mut2 (VHH)
VHH: B1 VHH with V37Y, V101F, R102V, S103N, R105N
notes: Conjugated with Alexa Fluor 488 for flow cytometry; source: E. coli WK6, purified (Ni-NTA, Superdex 75 gel filtration)
B7: Nb_An33mut1 (VHH)
VHH: B1 VHH with S27R, T28A, Y29L, V37Y
notes: as for B6
B8: Nb_An33mut3 (VHH)
VHH: B1 VHH with V37Y, V101N, R102D, S103C, R105L
notes: as for B6
B9: Nb_An-R4.11 (VHH)
VHH: QVQLQESGGGLVQPGGSLRLSCEGSGFILGYYTIGWFRQAPGKEREGVSCMNSSGRTKYADSVKGRFTISRDNAKNTVYLQMNSLKPEDRAVYFCAADLINLCDSSWLRDGMNYWGKGTQVTVSS
notes: as for B5
B10: Nb_An-R3.7 (VHH)
VHH: QVQLQESGGGLVQPGGSLRLSCEASGFILGYYTIGWIRQAPGKEREGVICITSAGGRTNYADSVKGRFTISRDNAKNTVYLQMNSLKPEDTAVYYCAADLINLCDSSWLRDGMNYWGKGTQVTVSS
notes: as for B5
B11: Nb_An-R3.92 (VHH)
VHH: B10 VHH with P14A, I37F, I49L, T52S, L109W
notes: as for B5
B12: Nb_An-R4.29 (VHH)
VHH: B10 VHH with I37F, I49S, T52N, A54S, G55P, R57T, S107T, L109V, Y115F
notes: as for B5
B13: Nb_An-R4.55 (VHH)
VHH: B10 VHH with R110Q
notes: as for B5
B14: Nb_An-R4.80 (VHH)
VHH: B10 VHH with I101T
notes: as for B5
B15: Nb_An-R4.71 (VHH)
VHH: QVQLQESGGGLVQPGGSLRLSCAASGFILNYATIAWFRQAPGKEREGVSCISSAFNTNYADSVKGRFAISRDNAKNTVYLQMNSLKPEDTAVYYCAATFGGTSYCSLRPDSSVPYDTWGQGTQVTVSS
notes: as for B5

The target of one assay is T1, Variant-specific Surface Glycoprotein (VSG) on live bloodstream form T. b. brucei AnTat1.1 (Trypanosoma brucei brucei AnTat1.1 (endogenous in the parasites)).
Assay: not given
Settings: not given
Molecule B1 registered a Trypanotoxic activity (%), 18 h incubation at 37°C with 20 µg/ml Nb of 0%.
On the same count and under the same terms, the figure for B2 is 57%.
The same measure, in the same setting: in the case of B3 it was 73%; in that of B4, 0%.

A further assay addresses T2, Variant-specific Surface Glycoprotein (VSG) on live bloodstream form T. b. brucei AnTat1.1 (Trypanosoma brucei brucei AnTat1.1, UniProt P06015). Kind of assay: cell-based or functional assay.
Settings: not given
Regarding B5, the “trypanotoxic activity (% relative to a non-trypanosome specific Nb), 10 and 20 µg/ml Nb, 18 h, 37°C; value at 20 µg/ml” value was over 95%.

The next assay concerns the target T3, soluble form of the Variant-specific Surface Glycoprotein (sVSG) of T. b. brucei AnTat1.1 (Trypanosoma brucei brucei AnTat1.1, UniProt P06015).
T3 construct: Variant-specific Surface Glycoprotein (VSG) of Trypanosoma brucei brucei AnTat1.1, soluble form (sVSG); Glycoprotein; amine-coupled to a CM5 chip for SPR; also called AnTat1.1 sVSG; soluble AnTat1.1 VSG
Nature of the assay: SPR; BIAcore T100; 1000-1500 RU soluble AnTat1.1 VSG amine-coupled on a CM5 chip; Nanobody 500 to 7.8 nM at 30 µl/min in HBS (10 mM Hepes pH 7.5, 150 mM NaCl, 3.5 mM EDTA, 0.005% Tween-20); 1:1 binding model with local Rmax. The settings on record: both partners purified.
As usually defined, the Kd is a measure of binding affinity in units of concentration. A lower Kd goes with a tighter complex. For orientation: koff means a measure of how fast the partners let go of each other. Read a high koff as a short-lived complex. The term kon denotes a measure of how fast the partners come together. Lower therefore signals slower complex formation. With B1, the Kd was 1100 nM, the koff was 0.264 s⁻¹ and the kon was 243000 M⁻¹ s⁻¹.
In turn, B6 registered a Kd of 723 nM, a koff of 0.227 s⁻¹ and a kon of 314000 M⁻¹ s⁻¹.
B7 showed a Kd of 89 nM, a koff of 0.042 s⁻¹ and a kon of 467000 M⁻¹ s⁻¹.
B2 returned a Kd of 23.5 nM, a koff of 0.016 s⁻¹ and a kon of 702000 M⁻¹ s⁻¹.
B8 gave a Kd of 197 nM, a koff of 0.066 s⁻¹ and a kon of 336000 M⁻¹ s⁻¹.
As for B3, the Kd was found to be 28 nM, the koff worked out at 0.021 s⁻¹ and the kon was determined as 741000 M⁻¹ s⁻¹.
The molecule B4 returned a Kd of 540 nM, a koff of 0.15 s⁻¹ and a kon of 291000 M⁻¹ s⁻¹.

A further assay addresses T2, Variant-specific Surface Glycoprotein …. Nature of the assay: cell-based or functional assay.
Settings: not given
This is another data set of the same source.
For B6, the “Trypanotoxic activity (%), 18 h incubation at 37°C with 20 µg/ml Nb” value is 4%.
Turning to B7, the “Trypanotoxic activity (%), 18 h incubation at 37°C with 20 µg/ml Nb” value was 33%.
On the same count and under the same terms, in the case of B8 it was 24%.

Another assay has the same target. Kind of assay: cell-based or functional assay.
Settings: not given
This is another data set of the same source.
Regarding B9, the “trypanotoxic activity (% relative to a non-trypanosome specific Nb), 10 µg/ml Nb, 18 h, 37°C, HMI-9/10% FBS” value was over 80%.
Same read-out and setting: the figure for B10 is over 80%; for B11 it is over 80%.
Same read-out and setting: the figure for B12 is over 80%; for B13 it is over 80%.
For B14, the “trypanotoxic activity (% relative to a non-trypanosome specific Nb), 10 µg/ml Nb, 18 h, 37°C, HMI-9/10% FBS” value is over 80%.
Same read-out and setting: in the case of B15 it was over 80%.

A further assay deals with T3, soluble form of the Variant-specific …. Kind of assay: SPR; BIAcore T100; 1000-1500 RU soluble AnTat1.1 VSG amine-coupled on a CM5 chip; Nanobody 500 to 7.8 nM at 30 µl/min in HBS (10 mM Hepes pH 7.5, 150 mM NaCl, 3.5 mM EDTA, 0.005% Tween-20); 1:1 binding model with local Rmax. The note with it: both partners purified. The source holds these as a separate data set. A general note: In SPR one partner is held on a chip, and binding of the other changes the refractive index at the surface.
On to B9, for which the Kd is 35 nM.
The same measure, in the same setting: in the case of B10 it was 5 nM.
In the case of B11, the Kd is 11 nM.
Still for that read-out and setting: the figure for B12 is 5 nM; for B13 it is 5 nM; for B14 it is 6 nM.
B15 registered a Kd of 7 nM.
The same measure, in the same setting: in the case of B5 it was 12 nM.

For another assay the target is unchanged. The description is as above. The settings on record: both partners purified. The source holds these as a separate data set.
B5 came in with a Kd of 9 nM.
